The source of these data is doi:10.1101/671792.

This test addresses polymerization-deficient p62 PB1 domain D69A/D73A (human) (UniProt Q13501). Description: ITC. (Isothermal titration calorimetry measures the heat released or taken up as one component is titrated into another.)

In general, Kd refers to the equilibrium constant for the complex coming apart. Low readings indicate tighter binding, high ones weaker binding.

B1: MEKK3 PB1 domain, residues 43-127 (ITC) (domain or fragment)
chain: SDVRIKFEHNGERRIIAFSRPVKYEDVEHKVTTVFGQPLDLHYMNNELSILLKNQDDLDKAIDILDRSSSMKSLRILLLSQDRNH
Molecule B1 showed a Kd of 26.8 nM.
